Here are results for two substances from US20170058268.

Common to all, as to assay: cell_activity
Holding throughout (conditions): E. coli, bisulfite

The target in data set [1] is Split M.SssI (1-272)-HS1 / HS2-M.SssI (273-386), 'wild-type' KFNSE at 297-301 (Spiroplasma sp. (M.SssI)?) (UniProt P15840).
For data set [2], the target named is Split M.SssI-HS1/HS2 variant PFCSY K297P,N299C,E301Y (Spiroplasma sp. (M.SssI)?) (UniProt P15840+P15840).
Data set [3] addresses Split M.SssI-HS1/HS2 variant CFESY K297C,N299E,E301Y (Spiroplasma sp. (M.SssI)?) (UniProt P15840).

Chain of Split M.SssI (1-272)-HS1 / HS2-M.SssI (273-386), 'wild-type' KFNSE at 297-301 (Spiroplasma sp. (M.SssI)?) (P15840 other isoform, or with tags, fused parts or gaps, chain 1 of 2): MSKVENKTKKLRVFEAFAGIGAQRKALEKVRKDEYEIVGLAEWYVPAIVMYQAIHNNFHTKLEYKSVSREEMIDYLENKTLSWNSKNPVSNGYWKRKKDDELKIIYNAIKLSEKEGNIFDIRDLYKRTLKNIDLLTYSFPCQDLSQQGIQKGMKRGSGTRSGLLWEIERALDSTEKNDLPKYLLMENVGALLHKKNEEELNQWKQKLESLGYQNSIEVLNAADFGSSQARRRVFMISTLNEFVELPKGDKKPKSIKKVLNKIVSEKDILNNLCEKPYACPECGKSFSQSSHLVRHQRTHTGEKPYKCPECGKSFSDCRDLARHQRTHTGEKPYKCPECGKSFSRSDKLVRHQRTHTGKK
Chain of Split M.SssI (1-272)-HS1 / HS2-M.SssI (273-386), 'wild-type' KFNSE at 297-301 (Spiroplasma sp. (M.SssI)?) (P15840 other isoform, or with tags, fused parts or gaps, chain 2 of 2): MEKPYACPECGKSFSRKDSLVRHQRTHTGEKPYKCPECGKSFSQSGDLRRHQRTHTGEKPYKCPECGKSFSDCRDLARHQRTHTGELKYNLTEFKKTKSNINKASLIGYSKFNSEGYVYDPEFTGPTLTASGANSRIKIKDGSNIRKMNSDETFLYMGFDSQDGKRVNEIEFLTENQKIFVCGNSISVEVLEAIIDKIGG
Chain of Split M.SssI-HS1/HS2 variant CFESY K297C,N299E,E301Y (Spiroplasma sp. (M.SssI)?) (P15840 other isoform, or with tags, fused parts or gaps K297C N299E E301Y, chain 1 of 2): as the sequence (P15840 other isoform, or with tags, fused parts or gaps, chain 1 of 2) above
Chain of Split M.SssI-HS1/HS2 variant CFESY K297C,N299E,E301Y (Spiroplasma sp. (M.SssI)?) (P15840 other isoform, or with tags, fused parts or gaps K297C N299E E301Y, chain 2 of 2): as the sequence (P15840 other isoform, or with tags, fused parts or gaps, chain 2 of 2) above, with K111C, N113E, E115Y counted along it
Chain of Split M.SssI-HS1/HS2 variant PFCSY K297P,N299C,E301Y (Spiroplasma sp. (M.SssI)?) (P15840 whole entry, stated change not applied, chain 1 of 2): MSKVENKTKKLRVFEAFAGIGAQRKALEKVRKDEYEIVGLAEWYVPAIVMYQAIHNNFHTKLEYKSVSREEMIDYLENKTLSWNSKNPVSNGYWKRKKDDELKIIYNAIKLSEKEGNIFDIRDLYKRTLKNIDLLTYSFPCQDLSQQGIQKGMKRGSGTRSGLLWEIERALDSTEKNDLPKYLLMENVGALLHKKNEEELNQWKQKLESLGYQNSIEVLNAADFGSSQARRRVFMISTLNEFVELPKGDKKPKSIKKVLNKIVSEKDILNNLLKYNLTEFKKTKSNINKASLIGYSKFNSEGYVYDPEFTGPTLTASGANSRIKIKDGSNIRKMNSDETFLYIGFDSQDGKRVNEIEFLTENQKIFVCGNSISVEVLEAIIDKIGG
Chain of Split M.SssI-HS1/HS2 variant PFCSY K297P,N299C,E301Y (Spiroplasma sp. (M.SssI)?) (P15840 whole entry, stated change not applied, chain 2 of 2): as the sequence (P15840 whole entry, stated change not applied, chain 1 of 2) above

In the case of “HS1/HS2 target site (FspI CpG flanked by HS1 and HS2 sites, plasmid)”, the activity came out at 94.1 % methylated in data set [1]; 78.9 % methylated in data set [2]; 42.1 % methylated in data set [3] (70-80% by restriction protection, also target-only methylation in HEK293).

Consider “Non-target site (SnaBI CpG or surrounding CpGs, no ZF sites, plasmid)”, for which the activity came to 49.5 % methylated in data set [1] (all off-target CpGs), 0.84 % methylated in data set [2] (all off-target CpGs) and 0.71 % methylated in data set [3] (all off-target CpGs).
